Assay results reported in paper PMC7950211 (2021).

Assays:
Assay in all cases: SPR
[1] = molecular target: T1, PF3D7_0721100, P. falciparum predicted secreted protein, recombinant (P. falciparum, biotin (enzymatic monobiotinylation))
T1 chain: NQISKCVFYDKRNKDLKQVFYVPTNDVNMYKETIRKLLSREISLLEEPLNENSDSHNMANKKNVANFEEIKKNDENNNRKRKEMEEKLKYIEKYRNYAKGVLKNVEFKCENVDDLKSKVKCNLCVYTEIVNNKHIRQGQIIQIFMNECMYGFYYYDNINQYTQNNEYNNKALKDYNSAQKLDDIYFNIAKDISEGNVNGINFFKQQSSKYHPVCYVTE

[2] = molecular target: T2, parasite-infected erythrocyte surface protein 15 (PIESP15), P. falciparum, recombinant ectodomain (P. falciparum, biotin (enzymatic monobiotinylation of the bait form))
T2 chain: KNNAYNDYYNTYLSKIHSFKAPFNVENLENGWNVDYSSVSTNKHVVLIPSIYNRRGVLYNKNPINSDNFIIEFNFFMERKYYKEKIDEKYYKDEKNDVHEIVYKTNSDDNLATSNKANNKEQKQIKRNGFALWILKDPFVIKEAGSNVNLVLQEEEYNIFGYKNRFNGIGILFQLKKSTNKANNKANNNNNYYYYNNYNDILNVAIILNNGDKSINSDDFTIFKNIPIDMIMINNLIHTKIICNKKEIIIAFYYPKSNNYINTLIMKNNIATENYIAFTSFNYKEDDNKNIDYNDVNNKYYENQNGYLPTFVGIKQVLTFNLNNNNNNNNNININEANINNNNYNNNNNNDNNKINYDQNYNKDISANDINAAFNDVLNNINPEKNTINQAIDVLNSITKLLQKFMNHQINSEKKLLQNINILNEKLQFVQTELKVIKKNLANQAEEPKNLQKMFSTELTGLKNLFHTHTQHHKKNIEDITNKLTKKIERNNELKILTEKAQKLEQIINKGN

[3] = molecular target: T3, PF3D7_0526900, P. falciparum p24 family protein, recombinant ectodomain (P. falciparum, biotin (enzymatic monobiotinylation of the bait form))
T3 chain: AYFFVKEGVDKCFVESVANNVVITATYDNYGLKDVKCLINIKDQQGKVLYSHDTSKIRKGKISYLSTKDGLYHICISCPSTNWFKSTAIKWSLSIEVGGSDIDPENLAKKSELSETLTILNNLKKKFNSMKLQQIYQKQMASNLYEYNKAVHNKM

B1: CelTOS, P. falciparum, recombinant (natural protein)
chain: FRGNNGHNSASSLYNGAQFIEQLNNAFTSAFLESQSMNKIGDDLAETISNELVSVLQKNSPTFLESSFDIKSEVKKHAKSMLKELIKVGLPSFENLVAENVKPPKVDPATYGIIVPVLTSLFNKVETAVGAKVSDEIWNYNSPDVSESEESLSDDFFD
modifications: biotin (enzymatic monobiotinylation of the bait form)
koff [1]: 0.025 s⁻¹

B2: PF3D7_0702900, P. falciparum secreted protein with tandem EF-hand domains, recombinant (natural protein)
chain: QDNKNKVEETHEEQGEMTQEEKDEIYSEFVDYDLNKDGLIDAEEIVVTLKNMKKADFINFFNKVDLDSSGTISIDEYMLFINSN
modifications: biotin (enzymatic monobiotinylation of the bait form)
koff [2]: 0.035 s⁻¹

B3: PF3D7_0422100, P. falciparum p24 family protein, recombinant ectodomain (domain or fragment)
chain: NFVLSNANTNNVNKNGANKKNNANNNNMNKAGDKKKATKGKKGNANDNVNEFNFNFNDLLNEINNAATNDNNNNNNDNNNDNNNNNNNNNNNYNGKNEINENNFNEEYNKLEKNFQMNAEDDDNNRGDINMDQFNEKKNNLNEDNNKMKPNANDYQYNENDADTDSEEDLTNIWNKNMQNFEPSTLLTFEIPSNSEEYLFEEVPEVNTYFRGVFYSNNEADDNIIEFLISDPDGQVIYKKEASEGIFYFYTKKVGIYTLTLKNNKWMGKKLTTVALGLGENPSLRSDHVKDFTNYIQRIVAETKKLKNEIKYLSSKHMRHIEKMKKITNK
modifications: biotin (enzymatic monobiotinylation of the bait form)
koff [3]: 0.23 s⁻¹
